In patent USRE48267E1, “Variants of C-type natriuretic peptide” (priority 2009, dated 2020):
Bridges are numbered along the chain shown (N, C = ends). Where no end group is shown, it is not given here. The star is where a group is joined. Heptanoyl = CCCCCCC(=O)*

T1: NPR-B (natriuretic peptide receptor B), murine, expressed endogenously on NIH3T3 cells (murine, UniProt Q6VVW5 17-1047)
T1 sequence (looked up): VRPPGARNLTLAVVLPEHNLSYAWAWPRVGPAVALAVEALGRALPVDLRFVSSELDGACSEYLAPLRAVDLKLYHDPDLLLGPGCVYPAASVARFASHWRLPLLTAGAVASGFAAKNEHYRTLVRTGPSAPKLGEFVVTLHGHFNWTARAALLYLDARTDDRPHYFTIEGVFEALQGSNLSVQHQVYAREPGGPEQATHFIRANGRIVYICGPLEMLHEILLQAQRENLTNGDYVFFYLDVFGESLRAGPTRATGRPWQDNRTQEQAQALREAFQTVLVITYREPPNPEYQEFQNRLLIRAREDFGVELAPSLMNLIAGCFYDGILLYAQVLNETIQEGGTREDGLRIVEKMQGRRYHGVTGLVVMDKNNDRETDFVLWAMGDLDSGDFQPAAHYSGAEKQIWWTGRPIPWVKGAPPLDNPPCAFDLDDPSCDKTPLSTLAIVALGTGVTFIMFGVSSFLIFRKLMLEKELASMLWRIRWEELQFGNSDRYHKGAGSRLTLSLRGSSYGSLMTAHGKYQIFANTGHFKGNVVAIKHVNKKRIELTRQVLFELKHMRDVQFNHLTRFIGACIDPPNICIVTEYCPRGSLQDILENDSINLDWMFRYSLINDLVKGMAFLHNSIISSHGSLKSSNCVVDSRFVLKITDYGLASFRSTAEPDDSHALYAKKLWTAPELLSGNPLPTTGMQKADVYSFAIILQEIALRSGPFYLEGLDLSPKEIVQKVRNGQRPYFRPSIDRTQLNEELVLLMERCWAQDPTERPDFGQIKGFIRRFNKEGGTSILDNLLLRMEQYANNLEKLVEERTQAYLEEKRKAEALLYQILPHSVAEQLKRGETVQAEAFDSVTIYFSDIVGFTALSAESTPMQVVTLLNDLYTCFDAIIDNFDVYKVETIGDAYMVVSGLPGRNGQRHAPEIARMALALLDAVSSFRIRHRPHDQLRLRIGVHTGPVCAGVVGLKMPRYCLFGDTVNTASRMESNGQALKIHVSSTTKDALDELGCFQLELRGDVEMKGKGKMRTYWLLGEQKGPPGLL

B1: CNP22, K4R, K10R, N-term.--N-term. dimer/disuccinimidyl glutarate (peptide)
peptide: GLSRGCFGLRLDRIGSMSGLGC
modifications: ends and bridges not checked; also: dimer joined N-terminus to N-terminus by disuccinimidyl glutarate
B2: CNP22, K4R, K10R, N-term.--N-term. dimer/Bis-PEO5 (peptide)
peptide: GLSRGCFGLRLDRIGSMSGLGC
modifications: ends and bridges not checked; also: dimer joined N-terminus to N-terminus by Bis-PEO5

Target: T1, NPR-B (natriuretic peptide receptor B), …
Assay: cell-based or functional assay

| Binder | cGMP response rel. to 1 uM CNP22; 10 nM peptide, NIH3T3 cells | cGMP response rel. to 1 uM CNP22; 1 uM peptide, NIH3T3 cells |
| --- | --- | --- |
| PGQEHPNARKYKGANKKGLSKGCFGLKLDRIGSMSGLGC (ends and bridges not checked; cysteine pairing not given here) [PGQEHPNARKYKGANKK-CNP22 (Pro-Gly-CNP37)] | 49 rel. to 1 uM CNP22 (100) | 103 rel. to 1 uM CNP22 (100) |
| GQTHSSGTQSGANQQGLSRGCFGLKLDRIGSMSGLGC [GQTHSSGTQSGANQQ-CNP22, K4R (fibrinogen)] | 12 rel. to 1 uM CNP22 (100) | 115 rel. to 1 uM CNP22 (100) |
| GANQQGLSRGCFGLKLDRIGSMSGLGC [GANQQ-CNP22, K4R] | 44 rel. to 1 uM CNP22 (100) | 95 rel. to 1 uM CNP22 (100) |
| GERAFKAWAVARLSQGLSKGCFGLKLDRIGSMSGLGC [GERAFKAWAVARLSQ-CNP22 (HSA fragment)] | 15 rel. to 1 uM CNP22 (100) | 87 rel. to 1 uM CNP22 (100) |
| GANRRGLSRGCFGLKLDRIGSMSGLGC [GANRR-CNP22, K4R] | 59 rel. to 1 uM CNP22 (100) | 105 rel. to 1 uM CNP22 (100) |
| B1 | 19 rel. to 1 uM CNP22 (100) | 44 rel. to 1 uM CNP22 (100) |
| ERGLSRGCFGLKLDRIGSMSGLGC [ER-CNP22, K4R] | 38 rel. to 1 uM CNP22 (100) | 113 rel. to 1 uM CNP22 (100) |
| AAWARLLQEHPNARGLSKGCFGLKLDRIGSMSGLGC (ends and bridges not checked; cysteine pairing not given here) [AAWARLLQEHPNAR-CNP22] | 36 rel. to 1 uM CNP22 (100) | 84 rel. to 1 uM CNP22 (100) |
| GHKSEVAHRFKGANKKGLSKGCFGLKLDRIGSMSGLGC [GHKSEVAHRFKGANKK-CNP22 (HSA-CNP27)] | 51 rel. to 1 uM CNP22 (100) | 109 rel. to 1 uM CNP22 (100) |
| GSTGQWHSESGANQQGLSRGCFGLKLDRIGSMSGLGC [GSTGQWHSESGANQQ-CNP22, K4R (fibrinogen)] | 2 rel. to 1 uM CNP22 (100) | 33 rel. to 1 uM CNP22 (100) |
| Heptanoyl-ELSKGCFGLKLDRIGSMSGLGC (ends and bridges not checked) [Heptanoic acid (N-term.)-CNP22, G1E] | 32 rel. to 1 uM CNP22 (100) | 84 rel. to 1 uM CNP22 (100) |
| SPKMVQGSGCFGLKLDRIGSMSGLGCKVLRRH (disulfide 10-26 (inferred)) [SPKMVQGSG-CNP17-KVLRRH (BNP tails)] | 25 rel. to 1 uM CNP22 (100) | 102 rel. to 1 uM CNP22 (100) |
| GANSSGLSRGCFGLKLDRIGSMSGLGC [GANSS-CNP22, K4R] | 27 rel. to 1 uM CNP22 (100) | 88 rel. to 1 uM CNP22 (100) |
| GVPQVSTSTGANQQGLSRGCFGLKLDRIGSMSGLGC [GVPQVSTSTGANQQ-CNP22, K4R (HSA fragment)] | 3 rel. to 1 uM CNP22 (100) | 35 rel. to 1 uM CNP22 (100) |
| PGHKSEVAHRFKGANKKGLSKGCFGLKLDRIGSMSGLGC [PGHKSEVAHRFKGANKK-CNP22 (Pro-HSA-CNP27)] | 32 rel. to 1 uM CNP22 (100) | 107 rel. to 1 uM CNP22 (100) |
| RGLSRGCFGLKLDRIGSMSGLGC [R-CNP22, K4R] | 54 rel. to 1 uM CNP22 (100) | 106 rel. to 1 uM CNP22 (100) |
| GANPRGLSRGCFGLKLDRIGSMSGLGC [GANPR-CNP22, K4R] | 50 rel. to 1 uM CNP22 (100) | 105 rel. to 1 uM CNP22 (100) |
| GHHSHEQHPHGANQQGLSKGCFGLKLDRIGSMSGLGC [GHHSHEQHPHGANQQ-CNP22 (HRGP fragment)] | 16 rel. to 1 uM CNP22 (100) | 95 rel. to 1 uM CNP22 (100) |
| QEHPNARKYKGANKKGLSKGCFGLKLDRIGSMSGLGC (ends and bridges not checked; cysteine pairing not given here) [QEHPNARKYKGANKK-CNP22 (CNP37)] | 43 rel. to 1 uM CNP22 (100) | 97 rel. to 1 uM CNP22 (100) |
| GQPREPQVYTLPPSGLSKGCFGLKLDRIGSMSGLGC [GQPREPQVYTLPPS-CNP22 (IgG1(Fc) fragment)] | 23 rel. to 1 uM CNP22 (100) | 72 rel. to 1 uM CNP22 (100) |
| AAWARLLQEHPNAGLSKGCFGLKLDRIGSMSGLGC (ends and bridges not checked; cysteine pairing not given here) [AAWARLLQEHPNA-CNP22] | 24 rel. to 1 uM CNP22 (100) | 76 rel. to 1 uM CNP22 (100) |
| B2 | 19 rel. to 1 uM CNP22 (100) | 41 rel. to 1 uM CNP22 (100) |
| GQPREPQVYTGANQQGLSRGCFGLKLDRIGSMSGLGC [GQPREPQVYTGANQQ-CNP22, K4R (IgG1(Fc) fragment)] | 2 rel. to 1 uM CNP22 (100) | 32 rel. to 1 uM CNP22 (100) |
| GQEHPNARKYKGANPKGLSKGCFGLKLDRIGSMSGLGC (ends and bridges not checked; cysteine pairing not given here) [GQEHPNARKYKGANPK-CNP22 (modified CNP37)] | 19 rel. to 1 uM CNP22 (100) | 61 rel. to 1 uM CNP22 (100) |
| GQEHPNARKYKGANQKGLSKGCFGLKLDRIGSMSGLGC (ends and bridges not checked; cysteine pairing not given here) [GQEHPNARKYKGANQK-CNP22 (modified CNP37)] | 60 rel. to 1 uM CNP22 (100) | 121 rel. to 1 uM CNP22 (100) |
| GQEHPNARKYKGANQQGLSKGCFGLKLDRIGSMSGLGC (ends and bridges not checked; cysteine pairing not given here) [GQEHPNARKYKGANQQ-CNP22 (modified CNP37)] | 9 rel. to 1 uM CNP22 (100) | 57 rel. to 1 uM CNP22 (100) |
| GQEHPNARKYKGANKKGLSKGCFGLKLDRIGSMSGLGC (ends and bridges not checked; cysteine pairing not given here) [GQEHPNARKYKGANKK-CNP22 (Gly-CNP37)] | 50 rel. to 1 uM CNP22 (100) | 98 rel. to 1 uM CNP22 (100) |
| GAHHPHEHDTHGANQQGLSKGCFGLKLDRIGSMSGLGC [GAHHPHEHDTHGANQQ-CNP22 (HRGP fragment)] | 14 rel. to 1 uM CNP22 (100) | 77 rel. to 1 uM CNP22 (100) |
| DLRVDTKSRAAWARGLSKGCFGLKLDRIGSMSGLGC [DLRVDTKSRAAWAR-CNP22] | 34 rel. to 1 uM CNP22 (100) | 101 rel. to 1 uM CNP22 (100) |
